In patent US20180171024A1:

What was measured:
[1] = target: HLA-A2 on cells (tumor cell lines, normal primary cells, PBMCs) (human); assay: flow cytometry, HepG2 cells
[2] = target: HLA-A2/WT1 126-134 complex on T2 cells (human); assay: flow cytometry, T2 cells loaded with WT1 peptide 1x10e-5M
[3] = target: HLA-A2 on cells (tumor cell lines, normal primary cells, PBMCs) (human); assay: flow cytometry, 501A melanoma cells, 10 µg/ml
[4] = target: HLA-A2 on cells (tumor cell lines, normal primary cells, PBMCs) (human); assay: flow cytometry, DG-75 cells, 10 µg/ml
[5] = target: HLA-A2 on other WT1 negative HLA-A2+ cells (other than 501, A498 and SKMEL; members not named); assay: flow cytometry on U266 cells (WT1 mRNA -)
[6] = target: HLA-A2 on cells (tumor cell lines, normal primary cells, PBMCs) (human); assay: flow cytometry, H522 cells, 10 µg/ml
[7] = target: HLA-A2 on cells (tumor cell lines, normal primary cells, PBMCs) (human); assay: flow cytometry, KYSE-140 cells, 10 µg/ml
[8] = target: HLA-A2/Tyrosinase369-377 complex on cells (human); assay: flow cytometry, T2 cells loaded with TYR peptide
[9] = target: HLA-A2/P68 on T2 cells (human); assay: flow cytometry, T2 cells loaded with P68 peptide
[10] = target: HLA-A2/TyrD-S11 on T2 cells (human); assay: flow cytometry, T2 cells loaded with TyrD S11 [..], 10 µg/ml
[11] = target: HLA-A2/KIAA0355 on T2 cells (human); assay: flow cytometry, T2 cells loaded with KIAA0335 [..], 10 µg/ml
[12] = target: HLA-A2 on cells (tumor cell lines, normal primary cells, PBMCs) (human); assay: flow cytometry, IM-9 cells, 10 µg/ml
[13] = target: HLA-A2/KPNA1 on T2 cells (human); assay: flow cytometry, T2 cells loaded with KPNA1 [..], 10 µg/ml
[14] = target: HLA-A2 on cells (tumor cell lines, normal primary cells, PBMCs) (human); assay: flow cytometry, A498 cells, 10 µg/ml
[15] = target: HLA-A2 on cells (tumor cell lines, normal primary cells, PBMCs) (human); assay: flow cytometry, WM-115 melanoma cells, 10 µg/ml
[16] = target: HLA-A2/TyrD-S20 on T2 cells (human); assay: flow cytometry, T2 cells loaded with TyrD-S20 [..], 10 µg/ml
[17] = target: HLA-A2/WT1 126-134 complex on T2 cells (human); assay: flow cytometry, T2 cells loaded with WT1 peptide
[18] = target: HLA-A2/TyrD-S19 on T2 cells (human); assay: flow cytometry, T2 cells loaded with TyrD-S19 [..], 10 µg/ml
[19] = target: HLA-A2 on cells (tumor cell lines, normal primary cells, PBMCs) (human); assay: flow cytometry, astrocytes 1840, 10 µg/ml
[20] = target: HLA-A2/TyrD-S1 on T2 cells (human); assay: flow cytometry, T2 cells loaded with TyrD S1 [..], 10 µg/ml
[21] = target: HLA-A2 on cells (tumor cell lines, normal primary cells, PBMCs) (human); assay: flow cytometry, colonic smooth muscle cells 2940, 10 µg/ml
[22] = target: HLA-A2/NFACT on T2 cells (human); assay: flow cytometry, T2 cells loaded with NFACT peptide
[23] = target: HLA-A2 on HLA-A2+ cells that do not express WT1 (tumor cell lines, normal primary cells); assay: flow cytometry on 501A melanoma cells (WT1 mRNA -)
[24] = target: HLA-A2/209M on T2 cells (human); assay: flow cytometry, T2 cells loaded with 209M peptide
[25] = target: HLA-A2 on cells (tumor cell lines, normal primary cells, PBMCs) (human); assay: flow cytometry, hepatocytes #5200-1, 10 µg/ml
[26] = target: HLA-A2 on unloaded T2 cells (human); assay: flow cytometry, unloaded T2 cells, 10 µg/ml
[27] = target: HLA-A2/CMV on T2 cells (human); assay: flow cytometry, T2 cells loaded with CMV peptide
[28] = target: HLA-A2 on cells (tumor cell lines, normal primary cells, PBMCs) (human); assay: flow cytometry, 501A melanoma cells
[29] = target: HLA-A2 on HLA-A2+/WT1+ SET2 cells (WT1 mRNA positive; WT1 126-134 peptide not detected by mass spectrometry of eluted HLA peptides); assay: flow cytometry on SET-2 cells (WT1 mRNA +)
[30] = target: HLA-A2 on cells (tumor cell lines, normal primary cells, PBMCs) (human); assay: flow cytometry, MEWO melanoma cells
[31] = target: HLA-A2 on cells (tumor cell lines, normal primary cells, PBMCs) (human); assay: flow cytometry, Malme-3M melanoma cells
[32] = target: HLA-A2/TyrD-S23 on T2 cells (human); assay: flow cytometry, T2 cells loaded with TyrD-S23 [..], 10 µg/ml
[33] = target: HLA-A2/TyrD-S13 on T2 cells (human); assay: flow cytometry, T2 cells loaded with TyrD S13 [..], 10 µg/ml
[34] = target: HLA-A2 on cells (tumor cell lines, normal primary cells, PBMCs) (human); assay: flow cytometry, SKMEL5 cells
[35] = target: HLA-A2/WT1 126-134 complex on T2 cells (human); assay: flow cytometry, T2 cells loaded with WT1 peptide 1x10e-4M
[36] = target: HLA-A2 on HLA-A2+/WT1+ BV173 cells (WT1 mRNA positive; WT1 126-134 peptide not detected by mass spectrometry of eluted HLA peptides); assay: flow cytometry on BV173 cells (WT1 mRNA +)
[37] = target: HLA-A2/TyrD-S16 on T2 cells (human); assay: flow cytometry, T2 cells loaded with TyrD S16 [..], 10 µg/ml
[38] = target: HLA-A2/TyrD-S4 on T2 cells (human); assay: flow cytometry, T2 cells loaded with TyrD S4 [..], 10 µg/ml

Substance: BB7.2 (antibody)
- GeoMean [1]: 154
- MFI [2]: 369
- MFI [3]: 760
- MFI [4]: 700
- MFI [5]: 80.1
- MFI [6]: 52.7
- MFI [7]: 36.1
- MFI [8]: 2200
- MFI [9]: 2660
- MFI relative to background [10]: 473
- MFI relative to background [11]: 714
- MFI [12]: 457
- MFI relative to background [13]: 729
- MFI [14]: 170
- MFI [15]: 215
- MFI relative to background [16]: 445
- MFI [17]: 2320
- MFI relative to background [18]: 555
- MFI [19]: 569
- MFI relative to background [20]: 596
- MFI [21]: 563
- MFI [22]: 2720
- MFI [23]: 229
- MFI [24]: 2870
- MFI [25]: 591
- MFI relative to background [26]: 417
- MFI [27]: 2400
- MFI [28]: 389
- MFI [29]: 890
- MFI [30]: 76
- MFI [31]: 372
- MFI relative to background [32]: 443
- MFI relative to background [33]: 749
- GeoMean [34]: 281
- MFI [35]: 722
- MFI [36]: 962
- MFI relative to background [37]: 421
- MFI relative to background [38]: 543
